Source: patent US20030082156A1 (priority 1999, published 2003)
Like-named read-outs stand apart in the source and are kept apart here.

Tests used:
[1] = molecular target: dEV8 (peptide name as printed; residues not given) peptide on H-2Kb (mouse)
[2] = molecular target: dEV8 (peptide name as printed; residues not given) peptide on H-2Kb (mouse); remark: listed apart in the source
[3] = molecular target: Tax (peptide residues not given) peptide on HLA-A2 (human)
[4] = molecular target: Tax (peptide residues not given) peptide on HLA-A2 (human); remark: listed apart in the source
[5] = molecular target: hen egg conalbumin (CA) peptide on I-Ak (mouse); experiment: single-chain
[6] = molecular target: vesicular stomatitis virus nuclear protein (VSV8) peptide on H-2Kb (mouse)
[7] = molecular target: vesicular stomatitis virus nuclear protein (VSV8) peptide on H-2Kb (mouse); remark: listed apart in the source
[8] = molecular target: vesicular stomatitis virus nuclear protein (VSV8) peptide on H-2Kb (mouse); experiment: full-length, on cells
[9] = molecular target: VSV8/K^b (as in the statement of the monomeric affinity; construct not described) (vesicular stomatitis virus; mouse) (UniProt P01901); experiment: method not stated; BIAcore implied by the sentence
[10] = molecular target: VSV8 octapeptide (RGYVYQGL) bound to K^b on presenting cells (vesicular stomatitis virus; mouse) (UniProt P01887); experiment: cell-based or functional assay
[11] = tested on: DP thymocytes of N15 tg Rag-2−/− H-2b mice; conditions: mouse, in vivo
N15 TCR = format: binding, mouse; conditions: read-out: monomeric affinity of the N15 TCR for peptide/K^b
[12] = tested on: N15 TCRs on immature thymocytes; format: cell-based, mouse
[13] = molecular target: CA/I-A^k: hen egg conalbumin peptide (residues 134-146) fused by a flexible linker to the N-terminus of the I-A^k β chain, with the I-A^k α chain; leucine zippers cleaved off by thrombin (hen; mouse) (UniProt P02789); experiment: method not stated; cited as refs. 5, 26 ('Our unpublished results')

Chain of UniProt P01901 (P01901 22-305): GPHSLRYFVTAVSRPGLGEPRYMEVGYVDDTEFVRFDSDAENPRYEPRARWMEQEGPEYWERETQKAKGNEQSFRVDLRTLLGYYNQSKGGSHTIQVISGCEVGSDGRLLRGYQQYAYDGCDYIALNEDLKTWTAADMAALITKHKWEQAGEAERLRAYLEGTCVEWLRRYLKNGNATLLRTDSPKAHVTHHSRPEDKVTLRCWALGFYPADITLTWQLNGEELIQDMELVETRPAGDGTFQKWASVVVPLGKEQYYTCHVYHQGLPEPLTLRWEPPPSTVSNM

2C TCR
Kd [1]: 100 µM | orientation angle of the TCR on the pMHC [2]: 45 °

A6 TCR
orientation angle of the TCR on the pMHC [3]: 56 °

B7 TCR
orientation angle of the TCR on the pMHC [4]: 70 °

D10 TCR
orientation angle of the TCR on the pMHC [5]: 80 °

N15 TCR
Kd [6]: > 200 µM | orientation angle of the TCR on the pMHC [7]: 54 ° | % CD8 SP thymocytes after 7 days of FTOC [8]: 1% | % DP thymocytes 24 h after injection [8]: 14%

N15 TCR (as in the statement of its monomeric affinity; construct not described)
Kd [9]: > 200 µM

N15 TCR (on thymocytes and splenic T cells of N15 TCR transgenic mice)
DP thymocyte dulling assay: fraction of DP thymocytes dulled [10]: 5%

RGYVYQGL [VSV8]
surviving thymocytes that were DP [11]: < 10% | % of DP thymocytes ([11]; iv): 14% | Kd (N15 TCR): > 200 µM | fraction of DP thymocytes dulled [12]: ~5% | thymocytes falling in the expected CD4/CD8 expression range of DP thymocytes [12]: 10-26%

scD10 TCR (single chain V module of the D10 TCR: Vβ8.2-linker-Vα2, 237 residues, Cys235Ser)
Kd [13]: 1 to 2 µM
